T1: mouse FcγRIII extracellular domain with C-terminal His tag (mouse, UniProt P08508 31-215)
T1 construct: Made on the basis of NCBI NP-034318.2; also called mFcγRIII; mFcgRIII
T1 chain: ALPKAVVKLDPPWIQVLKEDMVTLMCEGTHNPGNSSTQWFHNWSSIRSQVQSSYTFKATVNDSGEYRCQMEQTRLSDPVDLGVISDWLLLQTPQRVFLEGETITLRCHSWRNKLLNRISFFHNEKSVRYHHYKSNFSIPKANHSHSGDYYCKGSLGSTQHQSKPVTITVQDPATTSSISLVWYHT

T2: mouse FcγRII extracellular domain with C-terminal His tag (mouse, UniProt P08101 30-210)
T2 construct: Made on the basis of NCBI NP-034317.1; also called mFcγRII; mFcgRII
T2 sequence: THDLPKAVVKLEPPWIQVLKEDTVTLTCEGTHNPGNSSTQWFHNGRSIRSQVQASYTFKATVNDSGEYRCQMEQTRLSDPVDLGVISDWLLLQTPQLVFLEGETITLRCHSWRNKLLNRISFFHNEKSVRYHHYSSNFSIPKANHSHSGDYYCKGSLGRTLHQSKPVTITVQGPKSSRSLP

T3: mouse FcγRIII extracellular domain, C-terminally His-tagged (mouse, UniProt P08508 31-215)
T3 construct: the whole entry is named; also called mFcγRIII; mFcgRIII
T3 chain: T1 chain

T4: mouse FcγRII extracellular domain, C-terminally His-tagged (mouse, UniProt P08101 30-210)
T4 construct: the whole entry is named; also called mFcγRII; mFcgRII
T4 sequence: T2 sequence

B1: H237-MB484/MRAL-k0 (antibody, mouse IgG1, kappa)
heavy: QVQLQESGPGLVKPSETLSLTCAVSGHSISHDHAWSWVRQPPGEGLEWIGFISYSGITNYNPSLQGRVTISRDNSKNTLYLQMNSLRAEDTAVYYCARSLARTTAMDYWGEGTLVTVSSAKTTPPSVYPLAPGSAAQTNSMVTLGCLVKGYFPEPVTVTWNSGSLSSGVHTFPAVLQSDLYTLSSSVTVPSSTWPSETVTCNVAHPASSTKVDKKIVPRDCGCKPCICETYEVESVFIFPPKPKDVLTITLTPKVTCVVVDISKDDPEVQFSWFVDDVEVHTAQTQPREEQFNSTFRSVSELPIMHQDWLNGKEFKCRVNSAAFPAPIEKTISKTKGRPKAPQVYTIPPPKEQMAKDKVSLTCMITDFFPEDITVEWQWNGQPAENYKNTQPIMDTDGSYFVYSKLNVQKSNWEAGNTFTCSVLHEGLHNHHTEKSLSHSPGK
light: not shown
notes: copies: 2 + 2
B2: H237-MB489/MRAL-k0 (antibody, mouse IgG1, kappa)
heavy: B1 heavy with E229Q, T230P, Y231N
light: not shown
notes: copies: 2 + 2
B3: H237-MB481/MRAL-k0 (antibody, mouse IgG1, kappa)
heavy: B1 heavy with T230A
light: not shown
notes: copies: 2 + 2
B4: H237-MB469/MRAL-k0 (antibody, mouse IgG1, kappa)
heavy: B1 heavy with T230D, S235E
light: not shown
notes: copies: 2 + 2
B5: H237-MB487/MRAL-k0 (antibody, mouse IgG1, kappa)
heavy: B1 heavy with E229I, T230P, Y231A
light: not shown
notes: copies: 2 + 2
B6: H237-MB488/MRAL-k0 (antibody, mouse IgG1, kappa)
heavy: B1 heavy with T230P, Y231N
light: not shown
notes: copies: 2 + 2
B7: H237-MB472/MRAL-k0 (antibody, mouse IgG1, kappa)
heavy: B1 heavy with T230V, S235E
light: not shown
notes: copies: 2 + 2
B8: H237-MB468/MRAL-k0 (antibody, mouse IgG1, kappa)
heavy: B1 heavy with T230A, S235E
light: not shown
notes: copies: 2 + 2
B9: H237-MB471/MRAL-k0 (antibody, mouse IgG1, kappa)
heavy: B1 heavy with S235E
light: not shown
notes: copies: 2 + 2
B10: H237-MB482/MRAL-k0 (antibody, mouse IgG1, kappa)
heavy: B1 heavy with T230D
light: not shown
notes: copies: 2 + 2
B11: H237-MB483/MRAL-k0 (antibody, mouse IgG1, kappa)
heavy: B1 heavy with T230N
light: not shown
notes: copies: 2 + 2
B12: H237-MB485/MRAL-k0 (antibody, mouse IgG1, kappa)
heavy: B1 heavy with T230V
light: not shown
notes: copies: 2 + 2
B13: H237-MB470/MRAL-k0 (antibody, mouse IgG1, kappa)
heavy: B1 heavy with T230N, S235E
light: not shown
notes: copies: 2 + 2
B14: H237-MB653/MRAL-k0 (antibody, mouse IgG1, kappa)
heavy: B1 heavy with S235F
light: not shown
notes: copies: 2 + 2
B15: H237-MB708/MRAL-k0 (antibody, mouse IgG1, kappa)
heavy: B1 heavy with T230P, Y231A, S235P
light: not shown
notes: copies: 2 + 2
B16: H237-MB718/MRAL-k0 (antibody, mouse IgG1, kappa)
heavy: B1 heavy with T230P, Y231N, S235T
light: not shown
notes: copies: 2 + 2
B17: H237-MB717/MRAL-k0 (antibody, mouse IgG1, kappa)
heavy: B1 heavy with T230P, Y231N, S235P
light: not shown
notes: copies: 2 + 2
B18: H237-MB719/MRAL-k0 (antibody, mouse IgG1, kappa)
heavy: B1 heavy with T230P, Y231N, S235Q
light: not shown
notes: copies: 2 + 2
B19: H237-MB705/MRAL-k0 (antibody, mouse IgG1, kappa)
heavy: B1 heavy with T230P, Y231A, S235G
light: not shown
notes: copies: 2 + 2
B20: H237-MB655/MRAL-k0 (antibody, mouse IgG1, kappa)
heavy: B1 heavy with T230P, Y231A, S235F
light: not shown
notes: copies: 2 + 2
B21: H237-MB715/MRAL-k0 (antibody, mouse IgG1, kappa)
heavy: B1 heavy with T230P, Y231N, S235V
light: not shown
notes: copies: 2 + 2
B22: H237-MB704/MRAL-k0 (antibody, mouse IgG1, kappa)
heavy: B1 heavy with T230P, Y231A, S235A
light: not shown
notes: copies: 2 + 2
B23: H237-MB658/MRAL-k0 (antibody, mouse IgG1, kappa)
heavy: B1 heavy with E229Q, T230P, Y231N, S235F
light: not shown
notes: copies: 2 + 2
B24: H237-MB714/MRAL-k0 (antibody, mouse IgG1, kappa)
heavy: B1 heavy with T230P, Y231N, S235G
light: not shown
notes: copies: 2 + 2
B25: H237-MB716/MRAL-k0 (antibody, mouse IgG1, kappa)
heavy: B1 heavy with T230P, Y231N, S235I
light: not shown
notes: copies: 2 + 2
B26: H237-MB657/MRAL-k0 (antibody, mouse IgG1, kappa)
heavy: B1 heavy with T230P, Y231N, S235F
light: not shown
notes: copies: 2 + 2
B27: H237-MB710/MRAL-k0 (antibody)
heavy: B1 heavy with T230P, Y231A, S235Q
light: not shown
notes: copies: 2 + 2
B28: H237-MB709/MRAL-k0 (antibody, mouse IgG1, kappa)
heavy: B1 heavy with T230P, Y231A, S235T
light: not shown
notes: copies: 2 + 2
B29: H237-MB793/MRAL-k0 (antibody, mouse IgG1, kappa)
heavy: B1 heavy with E229Q, T230P, Y231N, S235I
light: not shown
notes: copies: 2 + 2
B30: H237-MB713/MRAL-k0 (antibody, mouse IgG1, kappa)
heavy: B1 heavy with T230P, Y231N, S235A
light: not shown
notes: copies: 2 + 2
B31: H237-MB654/MRAL-k0 (antibody, mouse IgG1, kappa)
heavy: B1 heavy with T230V, S235F
light: not shown
notes: copies: 2 + 2

Positions count from the first letter of the chain named.

In the first assay the target is T1, mouse FcγRIII extracellular domain with …. The assay can be described thus: SPR Biacore T200. As to the method: (§1) Each altered antibody was analyzed for its interaction with each Fcγ receptor prepared above using Biacore T100 (GE Healthcare Japan Corp.), Biacore T200 (GE Healthcare Japan Corp.), Biacore A100, or Biacore 4000. The running buffer used was HBS-EP+ (GE Healthcare Japan Corp.). The assay temperature was set to 25° C. The sensor chips used were chips prepared by immobilizing Protein L (ACTIGEN or BioVision) onto Series S Sensor Chip CM5 (GE Healthcare Japan Corp.) or Series S Sensor Chip CM4 (GE Healthcare Japan Corp.) by the amine coupling method.
(§2) In order to calculate the KD value of each altered antibody for FcγR, kinetic analysis was conducted according to the following method: first, the antibody of interest was captured onto any of these chips and allowed to interact with mFcγR diluted with a running buffer. For the obtained sensorgram, the assay results were globally fit into the 1:1 Langmuir binding model using Biacore Evaluation Software to calculate an association rate constant ka (L/mol/s) and a dissociation rate constant kd (1/s). From these values, the dissociation constant KD (mol/L) was calculated.
Background: In SPR one partner is held on a chip, and binding of the other changes the refractive index at the surface.
For B1, the “relative mFcγRIII-binding activity (mIgG1 = 1)” value worked out at 1.1.
Turning to B2, the “relative mFcγRIII-binding activity (mIgG1 = 1)” value amounted to 1.1.
As to B3, the “relative mFcγRIII-binding activity (mIgG1 = 1)” value turned out to be 0.6.
In the case of B4, the “relative mFcγRIII-binding activity (mIgG1 = 1)” value came out at 2.8.
In the case of B5, the “relative mFcγRIII-binding activity (mIgG1 = 1)” value came to 0.5.
On to B6, for which the “relative mFcγRIII-binding activity (mIgG1 = 1)” value was 1.8.
Regarding B7, the “relative mFcγRIII-binding activity (mIgG1 = 1)” value was found to be 2.5.
Still for that read-out and setting: then B8, with 2.8.
On the same count and under the same terms, then B9, with 4.8.
Take B10: the “relative mFcγRIII-binding activity (mIgG1 = 1)” value was 0.7.
Turning to B11, the “relative mFcγRIII-binding activity (mIgG1 = 1)” value was determined as 0.9.
On to B12, for which the “relative mFcγRIII-binding activity (mIgG1 = 1)” value stood at 0.5.
As for B13, the “relative mFcγRIII-binding activity (mIgG1 = 1)” value worked out at 4.9.

The target in the next assay is T2, mouse FcγRII extracellular domain with …. The assay can be described thus: SPR Biacore T200. As to the method: as §1, §2
On to B1, for which the “relative mFcγRII-binding activity (mIgG1 = 1)” value was found to be 14.9.
Take B2: the “relative mFcγRII-binding activity (mIgG1 = 1)” value was 6.9.
On the same count and under the same terms, then B3, with 8.5; and B4, with 57.1; and B5, with 6.8.
Take B6: the “relative mFcγRII-binding activity (mIgG1 = 1)” value is 28.7.
On to B7, for which the “relative mFcγRII-binding activity (mIgG1 = 1)” value stood at 39.4.
For the molecule B8, the “relative mFcγRII-binding activity (mIgG1 = 1)” value was found to be 63.1.
On to B9, for which the “relative mFcγRII-binding activity (mIgG1 = 1)” value was determined as 91.4.
Turning to B10, the “relative mFcγRII-binding activity (mIgG1 = 1)” value came out at 14.1.
For the molecule B11, the “relative mFcγRII-binding activity (mIgG1 = 1)” value turned out to be 9.4.
Same read-out and setting: with B12 the figure was 5.
As to B13, the “relative mFcγRII-binding activity (mIgG1 = 1)” value stood at 63.8.

A further assay concerns the target T3, mouse FcγRIII extracellular domain, …. The assay can be described thus: SPR Biacore T200, KD ratio. The procedure:
as §1, §2
With B14, the “relative mFcγRIII-binding activity (mIgG1 = 1)” value is 0.1 fold.
On to B15, for which the “relative mFcγRIII-binding activity (mIgG1 = 1)” value amounted to 0.03 fold.
As for B16, the “relative mFcγRIII-binding activity (mIgG1 = 1)” value was 0.05 fold.
Turning to B17, the “relative mFcγRIII-binding activity (mIgG1 = 1)” value stood at 0.03 fold.
With B18, the “relative mFcγRIII-binding activity (mIgG1 = 1)” value came to 2.31 fold.
Same read-out and setting: with B19 the figure was 0.75 fold; with B20, 0.06 fold.
In the case of B21, the “relative mFcγRIII-binding activity (mIgG1 = 1)” value amounted to 0.02 fold.
With B22, the “relative mFcγRIII-binding activity (mIgG1 = 1)” value was 0.87 fold.
Same read-out and setting: then B23, with 0.06 fold.
For the molecule B24, the “relative mFcγRIII-binding activity (mIgG1 = 1)” value stood at 1.61 fold.
As for B25, the “relative mFcγRIII-binding activity (mIgG1 = 1)” value was 0.05 fold.
Take B26: the “relative mFcγRIII-binding activity (mIgG1 = 1)” value was found to be 0.08 fold.
B27: the “relative mFcγRIII-binding activity (mIgG1 = 1)” value was 1.22 fold.
For the molecule B28, the “relative mFcγRIII-binding activity (mIgG1 = 1)” value worked out at 0.04 fold.
For the molecule B29, the “relative mFcγRIII-binding activity (mIgG1 = 1)” value was 0.05 fold.
Turning to B30, the “relative mFcγRIII-binding activity (mIgG1 = 1)” value came to 2.5 fold.
As for B31, the “relative mFcγRIII-binding activity (mIgG1 = 1)” value is 0.07 fold.

The next assay deals with T4, mouse FcγRII extracellular domain, …. The assay can be described thus: SPR Biacore T200, KD ratio. As to the method: as §1, §2
As for B14, the “relative mFcγRII-binding activity (mIgG1 = 1)” value was 0.41 fold.
On to B15, for which the “relative mFcγRII-binding activity (mIgG1 = 1)” value amounted to 0.28 fold.
Same read-out and setting: then B16, with 0.85 fold; and B17, with 0.41 fold; and B18, with 70.4 fold.
In the case of B19, the “relative mFcγRII-binding activity (mIgG1 = 1)” value came to 8.71 fold.
On to B20, for which the “relative mFcγRII-binding activity (mIgG1 = 1)” value amounted to 0.4 fold.
With B21, the “relative mFcγRII-binding activity (mIgG1 = 1)” value stood at 0.89 fold.
As to B22, the “relative mFcγRII-binding activity (mIgG1 = 1)” value was found to be 14.1 fold.
As to B23, the “relative mFcγRII-binding activity (mIgG1 = 1)” value was 0.51 fold.
Still for that read-out and setting: then B24, with 14.2 fold; and B25, with 3.98 fold.
With B26, the “relative mFcγRII-binding activity (mIgG1 = 1)” value stood at 1.77 fold.
With B27, the “relative mFcγRII-binding activity (mIgG1 = 1)” value amounted to 50.8 fold.
With B28, the “relative mFcγRII-binding activity (mIgG1 = 1)” value turned out to be 0.61 fold.
With B29, the “relative mFcγRII-binding activity (mIgG1 = 1)” value was 1.17 fold.
Regarding B30, the “relative mFcγRII-binding activity (mIgG1 = 1)” value is 23.5 fold.
With B31, the “relative mFcγRII-binding activity (mIgG1 = 1)” value amounted to 0.27 fold.
